The nanobody polyreactivity screen of Harvey et al. (2022)

Assay: yeast display, Sf9 membrane polyspecificity reagent, FACS + sequencing; frameworks hold sequencing errors
How it was run: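 A synthetic nanobody library was expressed on Saccharomyces cerevisiae BJ5465 by galactose induction for 36–48 hours. The library was stained for 1 hour at 4 °C with 10% biotinylated, detergent-solubilized Sf9 membrane reagent and enriched with streptavidin microbeads before FACS. Low and high (top ~1%) gates were set on anti-HA fluorescence for expression and streptavidin fluorescence for reagent binding, and each polyreactivity label reflects the gate of origin.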

Sequence | polyreactivity (PSR sort gate)
QVQLVESGGGLVQAGGSLRLSCAASGYIFHLYAMGWYRQAPGKERELVAAISSGGRTYYADSVKGRFTISRDNAKNTVYLQMNSLKPEDTAVYYCAVRSYVNTAVGYYYWGQGTQVTVSS | high polyreactivity
QVQLVESGGGLVQAGGSLRFSCAASGITIRFYAMGWYRQAPGKERELVAAITRGGSTTYAHSVKGRFTISRDNAKNTVYLQMNSLKPEDTEVSYCNAQYQSGYYTSYPDRFDTWGQGTQVTVSS | low polyreactivity
QVQLVESGGGLVQAGGSLRLSCAASGSIIGYNTMGWYRQAPGKERELVAAISYSSGSTHYADSVKGRFTISRDNAKNTVYLQMNSLKPEDTAVYYCNTVRRWSFGYWGQGTQVTVSS | low polyreactivity
QVQLVESGGGLVQAGGSLRLSCAASGFTFIRNGMGWYRQAPGKERELVAAITTSGSGTYYADSVKGRFTISRDNAKNTVYLQMNSLKPEDTAVYYCATDYRYRSYSRGAHDYWGQGTQVTVSS | low polyreactivity
QVQLVESGGGLVQAGGSLRLICAASGIIFDDYAMVWYRQAPGNERELVAAISVSGGSTYYADSVKGRFTISRDNAKNTVYLQMNSLKPEDTAVYYCAARLRWRYSYDYWGQGTQVTVSS | high polyreactivity
QVQLVESGGGLVQAGGSLRLSCAASGSTFGHNAMGWYRQAPGKERELVAAIDSGDGTTYADSVKGRFTISRDNAKNTVYLQMNSLKPEDTAVYYCAATTDRAEDDDNIGGYWGQGTQVTVSS | low polyreactivity
QVQLVESGGGLVQAGGSLRLSCAASGRIYNSYAMGWYRQAPGKERELVASTNYADSVKGRFTISRDNAKNTVYLQMNSLKPEDSAVYYCARVDVGWQGGEVLFGRFGYWGQGTQVTVSS | low polyreactivity
QVQLVESGGGLVQAGGSLRLSCAASGSICGSYAMGWYRQAPGKERELVAAITRSGSRTYYADSVKGRFTISRDNAKNTVYLQMISLKPEDTAVYFCATGYPGGFDYWGQGTQVTVSS | high polyreactivity
QVQLVESGGGLVQAGGSLRLSCAASGSTFDYNAMGWYRQAPGKERELVADITGSGASTSYADSVKGRFTISRDNAKNTVYLQMNSLKPEDTAVYFCAADQTPVGQVYYGTLSIRDYWGQGTQVTVSS | low polyreactivity
QVQLVESGGGLVQAGGSLRLSCAASGRTFGRYLMGWYRQAPGKERLLVAAISFSGTGTYYADSVKGRFTISRDNAKYTVYLQMNSLKPEDTAVYYCAKGVTRVQYKHYYWGQGTQVTVSS | high polyreactivity
QVQLVESGGGLVQAGGSLRLSCAASGSIFNTYAMGWYRQAPGKEREFVASITYRGSNTYYADSVKGRFTISRDNAKNTVYLQMNSLKPEDTAVYDCAADSFDYRPEYDYWGQGTQVTVSS | low polyreactivity
QVQLVESGGGIVQAGGSLRLSCAASGRTFYDYAMGWYRPAPGKERELVAAISRRAGSTYYADSVKGRFTISRDISKNSVYLQMISLNPEDTAVYFCAAAYSRRWWRGHHYAFDYWGQGTQVTVSS | high polyreactivity
QVQLEESGGGLVQAGGSLRLSCAASGSTIHSYAMGWYRHAPGKERELVAAITTTGTRTYYADSVKGRFTISRDNAKNTVYLQMNSLKPEDTAVYYCNAQRLQAHRTSRRYGFWGQGTQVTVSS | high polyreactivity
QVQLVESGGGLVQAGGSLRLSCAASGFIFSKNVMGWYRQAPGKERELVARITRSGGTTYYADSVKVRFTISRDNAKNTVYLQMHRLKQEDTAVYYCAARRYGYTSITWYDYWGQGTQVTVSS | high polyreactivity
QVQLVESGGGLVQAGGSLRLSCAASGGTFYGYAMGWYRQAPGKERELVAAINYRGGRTYYADSVKGRFTISRDNAKNTVYLQMNSLKPEDTAVYYCAATSYRLDGYDYWGQGTQVTVSS | high polyreactivity
QLQLVESGGGLVQAGGSLRLSCAASGLTFNTYAMGWSRQAPAKERELVAAITKGGGRTYYADSVKGRFTISRDNAKNTVYLQMNSLKPEDTAVYYCAVVSWYRYSRYENDYWGQGTQVTVSS | high polyreactivity
QVQLVESGGGLVQAGGSLRLSCAASGNTFWSYTMGWYRQAPGKERELVAAITRSGGSTYYADSVKGRFTISRDHAKNTVYLQMNSLKPEDTAVYYCAADYYSASRFGYWGQGTQVTVSS | high polyreactivity
